Test results published in publication PMC10397247.

How the values were obtained:
P3mS = target: T1, P3mS; assay: two-hybrid library CC1;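 note: natural log of median RNA to DNA barcode read ratio; higher means stronger binding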
T1 chain: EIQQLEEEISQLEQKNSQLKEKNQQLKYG

P9 = target: T2, P9; assay: two-hybrid library CC1; conditions: mean of both orientations;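 note: natural log of median RNA to DNA barcode read ratio; higher means stronger binding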
T2 chain: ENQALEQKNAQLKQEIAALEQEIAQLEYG

P5SC2 = target: T3, P5SC2; assay: two-hybrid library CC1; conditions: mean of both orientations;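 note: natural log of median RNA to DNA barcode read ratio; higher means stronger binding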
T3 chain: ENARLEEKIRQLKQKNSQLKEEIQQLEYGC

P4 = target: T4, P4; assay: two-hybrid library CC1; conditions: mean of both orientations;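 note: natural log of median RNA to DNA barcode read ratio; higher means stronger binding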
T4 chain: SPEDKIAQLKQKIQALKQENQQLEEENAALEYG

P4mS = target: T5, P4mS; assay: two-hybrid library CC1; conditions: mean of both orientations;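 note: natural log of median RNA to DNA barcode read ratio; higher means stronger binding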
T5 chain: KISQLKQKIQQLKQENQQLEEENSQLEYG

P7 = target: T6, P7; assay: two-hybrid library CC1; conditions: mean of both orientations;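 note: natural log of median RNA to DNA barcode read ratio; higher means stronger binding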
T6 chain: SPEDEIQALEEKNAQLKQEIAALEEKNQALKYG

P8mS = target: T7, P8mS; assay: two-hybrid library CC1; conditions: mean of both orientations
T7 chain: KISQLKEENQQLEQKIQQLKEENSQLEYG

P5 = target: T8, P5; assay: two-hybrid library CC1; conditions: mean of both orientations
T8 chain: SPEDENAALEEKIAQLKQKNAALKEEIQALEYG

P7mS = target: T9, P7mS; assay: two-hybrid library CC1; conditions: mean of both orientations
T9 chain: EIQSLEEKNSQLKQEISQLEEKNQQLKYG

P5mS = target: T10, P5mS; assay: two-hybrid library CC1; conditions: mean of both orientations
T10 chain: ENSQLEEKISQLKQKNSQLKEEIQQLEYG

P6SC1 = target: T11, P6SC1; assay: two-hybrid library CC1; conditions: mean of both orientations
T11 chain: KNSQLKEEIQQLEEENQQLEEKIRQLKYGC

P5SC1 = target: T12, P5SC1; assay: two-hybrid library CC1; conditions: mean of both orientations
T12 chain: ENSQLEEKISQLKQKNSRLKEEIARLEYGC

P8 = target: T13, P8; assay: two-hybrid library CC1; conditions: mean of both orientations
T13 chain: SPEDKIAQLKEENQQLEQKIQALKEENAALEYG

P6mS = target: T14, P6mS; assay: two-hybrid library CC1; conditions: mean of both orientations
T14 chain: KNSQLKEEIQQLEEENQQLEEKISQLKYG

P6SC2 = target: T15, P6SC2; assay: two-hybrid library CC1; conditions: mean of both orientations
T15 chain: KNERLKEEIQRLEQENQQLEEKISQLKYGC

P6 = target: T16, P6; assay: two-hybrid library CC1; conditions: mean of both orientations
T16 chain: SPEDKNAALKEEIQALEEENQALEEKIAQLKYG

O6 = target: T17, O6; assay: two-hybrid library CC0; conditions: mean of both orientations
T17 chain: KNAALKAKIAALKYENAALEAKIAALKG

O7 = target: T18, O7; assay: two-hybrid library CC0; conditions: mean of both orientations
T18 chain: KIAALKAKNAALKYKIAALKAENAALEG

O8 = target: T19, O8; assay: two-hybrid library CC0; conditions: mean of both orientations
T19 chain: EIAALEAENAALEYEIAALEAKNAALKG

O4 = target: T20, O4; assay: two-hybrid library CC0; conditions: mean of both orientations
T20 chain: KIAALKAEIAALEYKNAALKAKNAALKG

O9 = target: T21, O9; assay: two-hybrid library CC0; conditions: mean of both orientations
T21 chain: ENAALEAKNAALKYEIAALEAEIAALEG

O5 = target: T22, O5; assay: two-hybrid library CC0; conditions: mean of both orientations
T22 chain: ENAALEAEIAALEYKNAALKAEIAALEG

O14 = target: T23, O14; assay: two-hybrid library CC0; conditions: mean of both orientations
T23 chain: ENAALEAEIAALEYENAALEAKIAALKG

O13 = target: T24, O13; assay: two-hybrid library CC0; conditions: mean of both orientations
T24 chain: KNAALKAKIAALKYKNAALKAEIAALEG

O3 = target: T25, O3; assay: two-hybrid library CC0; conditions: mean of both orientations
T25 chain: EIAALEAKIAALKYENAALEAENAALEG

O2 = target: T26, O2; assay: two-hybrid library CC0; conditions: mean of both orientations
T26 chain: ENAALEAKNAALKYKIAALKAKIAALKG

O15 = target: T27, O15; assay: two-hybrid library CC0; conditions: mean of both orientations
T27 chain: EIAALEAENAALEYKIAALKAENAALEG

O16 = target: T28, O16; assay: two-hybrid library CC0; conditions: mean of both orientations
T28 chain: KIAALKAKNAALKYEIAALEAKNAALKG

B1: P3mS (peptide)
chain: EIQQLEEEISQLEQKNSQLKEKNQQLKYG
Work on B1 yielded an interaction score (P3mS) of -3.24, an interaction score (P9) of -2.34 and an interaction score (P5SC2) of -2.78. The interaction score (P4) was -0.0449, the interaction score (P4mS) was 0.221 and the interaction score (P7) was -2.64. It also gave an interaction score (P8mS) of -2.87, an interaction score (P5) of -2.93 and an interaction score (P7mS) of -2.96. For the same binder, the interaction score (P5mS) was -2.69, the interaction score (P6SC1) was -2.8 and the interaction score (P5SC1) was -2.77. The interaction score (P8) was -2.54, the interaction score (P6mS) was -2.74 and the interaction score (P6SC2) was -2.5. It also gave an interaction score (P6) of -2.8.

B2: O13 (peptide)
chain: KNAALKAKIAALKYKNAALKAEIAALEG
B2 gave an interaction score (O6) of -1.12, an interaction score (O7) of -2.81 and an interaction score (O8) of -1.5. It also gave an interaction score (O4) of -2.72, an interaction score (O9) of -2.75 and an interaction score (O5) of -2.45. For the same binder, the interaction score (O14) was 1.21, the interaction score (O13) was -2.86 and the interaction score (O3) was -2.81. The interaction score (O2) was -2.82, the interaction score (O15) was -0.499 and the interaction score (O16) was -2.87.
